Data published in PMC11024299, “Probing the active site of Class 3 L-asparaginase by mutagenesis. I. Tinkering with the zinc coordination site of ReAV” (Frontiers in Chemistry, 2024).

How the values were obtained:
ReAV = target: T1, ReAV (Rhizobium etli, UniProt Q2K0Z2); experiment: multiple injection isothermal titration calorimetry (ITC-MIM); format: biochemical; conditions: 10 mM Tris-HCl pH 9.0, 37 °C, no added Zn2+; WT values cited to the same group's earlier paper (Sliwiak et al., 2024); cited from earlier work
T1 construct: gene ansA; recombinant from plasmid pET151-D-ReAV in E. coli BL21 Gold (DE3); His-tag cut with TEV protease; homodimer, Zn site C135/K138/C189
T1 sequence (Q2K0Z2 entry or part of it): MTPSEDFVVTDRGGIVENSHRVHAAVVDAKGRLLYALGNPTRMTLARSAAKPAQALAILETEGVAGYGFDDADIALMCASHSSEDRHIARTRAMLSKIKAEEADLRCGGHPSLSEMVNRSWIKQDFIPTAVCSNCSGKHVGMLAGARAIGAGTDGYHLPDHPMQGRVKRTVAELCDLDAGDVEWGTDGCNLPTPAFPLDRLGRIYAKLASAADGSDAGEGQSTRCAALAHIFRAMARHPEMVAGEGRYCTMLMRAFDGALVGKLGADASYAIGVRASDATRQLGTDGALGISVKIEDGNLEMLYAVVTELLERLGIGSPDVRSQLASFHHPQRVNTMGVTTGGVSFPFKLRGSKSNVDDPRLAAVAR
Text: (§1) multiple injection isothermal titration calorimetry (ITC-MIM) on ReAV

[1] = substrate: NC(=O)C[C@H](N)C(=O)O; experiment: as above; format: biochemical, Rhizobium etli; conditions: 10 mM Tris-HCl pH 9.0, 37 °C, no added Zn2+
Text: as §1

[2] = target: the molecule itself; experiment: crystal structure; vapor diffusion crystals grown at 19°C, protein supplemented with 0.5%-1% DDM; data at 100 K; molecular replacement with WT ReAV (PDB 7os5); homodimer(s) in the asymmetric unit

Row | Molecule | binding result [2] | further results
1 | NC(=O)C[C@H](N)C(=O)O [L-asparagine] |  | Km (ReAV): 2700 ± 100 µM
2 | ReAV H139A (enzyme, Rhizobium etli, Homodimer in the crystal (two dimers per asymmetric unit); also called H139A mutant; Rhizobium etli Class 3 L-asparaginase ReAV H139A mutein; source: E. coli BL21 Gold, purified (HisTrap, TEV digestion, Superdex 200)) MTPSEDFVVTDRGGIVENSHRVHAAVVDAKGRLLYALGNPTRMTLARSAAKPAQALAILETEGVAGYGFDDADIALMCASHSSEDRHIARTRAMLSKIKAEEADLRCGGHPSLSEMVNRSWIKQDFIPTAVCSNCSGKAVGMLAGARAIGAGTDGYHLPDHPMQGRVKRTVAELCDLDAGDVEWGTDGCNLPTPAFPLDRLGRIYAKLASAADGSDAGEGQSTRCAALAHIFRAMARHPEMVAGEGRYCTMLMRAFDGALVGKLGADASYAIGVRASDATRQLGTDGALGISVKIEDGNLEMLYAVVTELLERLGIGSPDVRSQLASFHHPQRVNTMGVTTGGVSFPFKLRGSKSNVDDPRLAAVAR | binds | Km [1]: 5600 ± 200 µM; kcat [1]: 445 ± 20 s⁻¹; kcat/Km [1]: 80000 ± 1000 M⁻¹ s⁻¹
3 | ReAV C135A (enzyme, Rhizobium etli, Homodimer in the crystal (one dimer per asymmetric unit); also called C135A mutant; Rhizobium etli Class 3 L-asparaginase ReAV C135A mutein; source: E. coli BL21 Gold, purified (HisTrap, TEV digestion, Superdex 200)) MTPSEDFVVTDRGGIVENSHRVHAAVVDAKGRLLYALGNPTRMTLARSAAKPAQALAILETEGVAGYGFDDADIALMCASHSSEDRHIARTRAMLSKIKAEEADLRCGGHPSLSEMVNRSWIKQDFIPTAVCSNASGKHVGMLAGARAIGAGTDGYHLPDHPMQGRVKRTVAELCDLDAGDVEWGTDGCNLPTPAFPLDRLGRIYAKLASAADGSDAGEGQSTRCAALAHIFRAMARHPEMVAGEGRYCTMLMRAFDGALVGKLGADASYAIGVRASDATRQLGTDGALGISVKIEDGNLEMLYAVVTELLERLGIGSPDVRSQLASFHHPQRVNTMGVTTGGVSFPFKLRGSKSNVDDPRLAAVAR | binds | 
4 | ReAV K138A (enzyme, Rhizobium etli, Homodimer in the crystal (two dimers per asymmetric unit); also called K138A mutant; Rhizobium etli Class 3 L-asparaginase ReAV K138A mutein; source: E. coli BL21 Gold, purified (HisTrap, TEV digestion, Superdex 200)) MTPSEDFVVTDRGGIVENSHRVHAAVVDAKGRLLYALGNPTRMTLARSAAKPAQALAILETEGVAGYGFDDADIALMCASHSSEDRHIARTRAMLSKIKAEEADLRCGGHPSLSEMVNRSWIKQDFIPTAVCSNCSGAHVGMLAGARAIGAGTDGYHLPDHPMQGRVKRTVAELCDLDAGDVEWGTDGCNLPTPAFPLDRLGRIYAKLASAADGSDAGEGQSTRCAALAHIFRAMARHPEMVAGEGRYCTMLMRAFDGALVGKLGADASYAIGVRASDATRQLGTDGALGISVKIEDGNLEMLYAVVTELLERLGIGSPDVRSQLASFHHPQRVNTMGVTTGGVSFPFKLRGSKSNVDDPRLAAVAR | binds | 
5 | ReAV D187A (enzyme, Rhizobium etli, Homodimer in the crystal (two dimers per asymmetric unit); also called D187A mutant; Rhizobium etli Class 3 L-asparaginase ReAV D187A mutein; source: E. coli BL21 Gold, purified (HisTrap, TEV digestion, Superdex 200)) MTPSEDFVVTDRGGIVENSHRVHAAVVDAKGRLLYALGNPTRMTLARSAAKPAQALAILETEGVAGYGFDDADIALMCASHSSEDRHIARTRAMLSKIKAEEADLRCGGHPSLSEMVNRSWIKQDFIPTAVCSNCSGKHVGMLAGARAIGAGTDGYHLPDHPMQGRVKRTVAELCDLDAGDVEWGTAGCNLPTPAFPLDRLGRIYAKLASAADGSDAGEGQSTRCAALAHIFRAMARHPEMVAGEGRYCTMLMRAFDGALVGKLGADASYAIGVRASDATRQLGTDGALGISVKIEDGNLEMLYAVVTELLERLGIGSPDVRSQLASFHHPQRVNTMGVTTGGVSFPFKLRGSKSNVDDPRLAAVAR | binds | 
6 | ReAV C189A (enzyme, Rhizobium etli, Homodimer in the crystal (one dimer per asymmetric unit); also called C189A mutant; Rhizobium etli Class 3 L-asparaginase ReAV C189A mutein; source: E. coli BL21 Gold, purified (HisTrap, TEV digestion, Superdex 200)) MTPSEDFVVTDRGGIVENSHRVHAAVVDAKGRLLYALGNPTRMTLARSAAKPAQALAILETEGVAGYGFDDADIALMCASHSSEDRHIARTRAMLSKIKAEEADLRCGGHPSLSEMVNRSWIKQDFIPTAVCSNCSGKHVGMLAGARAIGAGTDGYHLPDHPMQGRVKRTVAELCDLDAGDVEWGTDGANLPTPAFPLDRLGRIYAKLASAADGSDAGEGQSTRCAALAHIFRAMARHPEMVAGEGRYCTMLMRAFDGALVGKLGADASYAIGVRASDATRQLGTDGALGISVKIEDGNLEMLYAVVTELLERLGIGSPDVRSQLASFHHPQRVNTMGVTTGGVSFPFKLRGSKSNVDDPRLAAVAR | binds | 
